Results taken from patent publication US20180021429A1, “ANTICANCER AGENTS OR ANTIMETASTATIC AGENTS USING FSTL1 AND COMBINATION DRUG THEREOF” (PHARMA FOODS INTERNATIONAL CO., LTD., priority 2015, published 2018).

Assays:
[1] = system: mouse colorectal cancer CT26 cell-transplanted models; assay: In vivo colorectal cancer model (Example 20); design: species or system BALB/c mice; conditions: intraperitoneal 10 mg/kg on days 4 and 7
Procedure: (§1) Procedures and methods of the experiment were basically performed under substantially the same conditions as in the bone metastasis model experiments of Examples 17 to 19 except that bone metastasis was not evaluated. Specifically, drug efficacy evaluation was conducted using mouse tumor models other than Snail-positive tumor bone metastasis models. The drug efficacy of the anti-FSTL1 antibody was evaluated using cancer-bearing models of BALB/c mice different in strain from the C57BL/6 mice used in the preceding tests. The test was conducted by changing only the amount of tumor implanted, antibody administration timing, and assay timing. • Day 0: transplantation of tumor cells (5×10^5 cells subcutaneously & 5×10^5 cells intravenously) Days 4 and 7: intraperitoneal administration of the antibody (10 mg/kg) • Day 14: drug efficacy evaluation (subcutaneous tumor growth (FIG. 14A) and lung metastasis (FIG. 14B))
For lung metastasis, the number of metastatic nodules in the lung was macroscopically counted. The tumor volumes of the mice were measured 7, 11, and 14 days after tumor implantation.

[2] = system: mouse colorectal cancer CT26 cells; assay: Mouse colorectal cancer CT26 cell-transplanted model (Example 20); format: in vivo
Procedure: as §1, with “108A)” for “14A)”, “108B)) For lung metastasis, the number of metastatic nodules in the lung was macroscopically counted. The tumor volumes of the mice were measured 7, 11, and 14 days after tumor implantation.” for “14B))”

[3] = system: Panc1, Panc1-snail+, MIAPaCa, MDA231, Hs294T; assay: Proliferative capacity and invasive capacity of various human tumor cells; format: cell-based; conditions: particularly in highly metastatic tumor cell line highly expressing Snail
Excerpt: (§2) Specifically, the influence of the anti-FSTL1 antibody on proliferative capacity and invasive capacity was studied using various human tumor cells, regardless of the presence or absence of the expression of Snail or FSTL1. […] After culture for 3 days, the number of cells per culture system was counted to evaluate the proliferative capacity of the cells. […] Then, the number of cells that permeated the membranes was counted under a microscope to evaluate the invasive capacity of the cells.
as §2

mouse melanoma B16-F10 [4] = assay: In vivo, mouse melanoma B16-F10 (Example 22)
Procedure: (§3) The drug efficacy of the anti-FSTL1 antibody was evaluated according to Examples 17 to 20 using other cancer-bearing models of C57BL/6 mice of the same strain as in Snail-positive tumor bone metastasis models. The “mouse melanoma B16-F10” is a parent line of the cell line forced to express Snail, which was transplanted in the bone metastasis models used in the preceding tests.
1. Experiment Group (n=5) • 1. Mouse melanoma B16-F10+control IgG (anti-DNP mAb) • 2. Mouse melanoma B16-F10+anti-FSTL1 mAb (#6-55)
(§4) • Day 0: transplantation of tumor cells (1×10^6 cells subcutaneously & 1×10^6 cells intravenously) • Day 3: intraperitoneal administration of the antibody (first dose, corresponding to 200 μg/mouse=10 mg/kg) • Day 6: intraperitoneal administration of the antibody (second dose, corresponding to 200 μg/mouse=10 mg/kg) • Day 15 various immunological assays
• Effects on the growth of subcutaneous tumor (calculation of tumor volume by tumor size measurement): measured 6, 10, and 14 days after tumor implantation (FIG. 46A) • Effects on weight loss (FIG. 46B)
• Effects on the growth of subcutaneous tumor (calculation of tumor volume by tumor size measurement): measured 6, 10, and 14 days after tumor implantation (FIG. 78A) • Effects on weight loss (FIG. 78B)

mouse melanoma B16-F10 [5] = assay: In vivo melanoma B16-F10 model (Example 22); design: species or system C57BL/6 mice; conditions: intraperitoneal 10 mg/kg on days 3 and 6
Procedure: as §3
1. Experiment Group (n=5) 1. Mouse melanoma B16-F10+control IgG (anti-DNP mAb) 2. Mouse melanoma B16-F10+anti-FSTL mAb (#6-55)
as §4
• Effects on the growth of subcutaneous tumor (calculation of tumor volume by tumor size measurement): measured 6, 10, and 14 days after tumor implantation (FIG. 16A) • Effects on weight loss (FIG. 16B)

B1: #6-55: chicken-mouse chimeric anti-FSTL1 antibody clone; variable regions SEQ ID NO: 783 (light), 785 (heavy) (antibody, V domains shown)
VH: AVTLDESGGGLQTPGGALSLVCKGSGFTFTSVTMQWVRQAPGKGLEWVASVCSGSSTYYAPAVKGRATISRDNGQSTVRLQLSNLRPEDTGTYYCAKIAGRARWSCTSAAYNIDAWGHGTEVIVSS
VL: ASTQPSSVSAIPGETVKITCSGGGNNYGWYQQRSPGSAPVTVIYYNDNRPSNIPSRFSGSTSGSTSTLTITGVQADDEAIYYCGSWDSNTDSGIFGAGTTLTVL
modifications: mouse constant regions
growth and lung metastasis of CT26 subcutaneous tumor ([1]; day 14): very strongly suppressed the growth and lung metastasis of CT26 subcutaneous tumor
solid tumor disappearance (mice) ([1]; n=5): three out of the five mice
growth and lung metastasis of CT26 subcutaneous tumor ([2]; BALB/c mice, intraperitoneal 10 mg/kg on days 4 and 7, day 14, FIG. 108): very strongly suppressed
number of metastatic nodules in the lung ([2]; day 14, control antibody group 14 nodules on average, FIG. 108B): 0 to 3 nodules
disappearance of solid tumor (mice) ([2]; n=5, intraperitoneal 10 mg/kg on days 4 and 7): three out of the five mice
invasive capacity ([3]; Matrigel-coated transwell chamber, 4 hours): strongly suppressed
proliferative capacity ([3]; antibody 5 μg/ml, 3 days): strongly suppressed
weight loss (mouse melanoma B16-F10 [4]; intraperitoneal 10 mg/kg on days 3 and 6): suppressive activity against weight loss was also exhibited
subcutaneous tumor growth (mouse melanoma B16-F10 [4]; intraperitoneal 10 mg/kg on days 3 and 6, vs control antibody): strongly suppressed
weight loss (mouse melanoma B16-F10 [5]): suppressive activity against weight loss was also exhibited
subcutaneous tumor growth (mouse melanoma B16-F10 [5]; vs control antibody): strongly suppressed
